Measurements taken from PMC6503924.

Biological target: Todarodes pacificus hemocyanin (Todarodes pacificus)
Assay: cryo-EM structure; single-particle cryo-EM of purified hemocyanin, 2.9 mg/ml, 100 mM HEPES pH 7.5, 200 mM CaCl2; asymmetric refinement (no symmetry imposed), overall 5.1 Å; model by rigid-body fitting

**Q.** For “Todarodes pacificus hemocyanin (natural protein)”, which stoichiometry N is on record?
**A.** 10
